Test results from US20190211111A1.

Biological target: GCN4 peptide-fused αCD19 Fab (Rodgers et al.)
Test: ELISA, coated GCN4 peptide-fused αCD19 Fab, detection with anti-human lambda-HRP

Row | EC50 | Substance
1 | 1 nM | αGCN4-Fab (LC-G202X, HC-K129X, X=pAcF)
2 | 1 nM | αGCN4-Fab (LC-S155X, HC-K129X, X=pAcF)
3 | 1 nM | αGCN4-Fab (LC-S193X, HC-K129X, X=pAcF)
